{"source": "paper PMC5655142", "about": "“Anti-diabetic drug binding site in a mammalian KATP channel revealed by Cryo-EM” (eLife, 2017)", "proteins": {"B1": {"name": "rat Kir6.2 (natural protein)", "chain": "MLSRKGIIPEEYVLTRLAEDPTEPRYRTRERRARFVSKKGNCNVAHKNIREQGRFLQDVFTTLVDLKWPHTLLIFTMSFLCSWLLFAMVWWLIAFAHGDLAPGEGTNVPCVTSIHSFSSAFLFSIEVQVTIGFGGRMVTEECPLAILILIVQNIVGLMINAIMLGCIFMKTAQAHRRAETLIFSKHAVITLRHGRLCFMLRVGDLRKSMIISATIHMQVVRKTTSPEGEVVPLHQVDIPMENGVGGNSIFLVAPLIIYHVIDSNSPLYDLAPSDLHHHQDLEIIVILEGVVETTGITTQARTSYLADEILWGQRFVPIVAEEDGRYSVDYSKFGNTVKVPTPLCTARQLDEDRSLLDALTLASSRGPLRKRSVAVAKAKPKFSISPDSLS", "notes": "the final model holds residues 32-352, the distal N- and C-termini were not seen in the map; source: INS-1 clone 832/13 cells, infected with recombinant adenovirus, co-expressed with FLAG-SUR1; purified as the channel complex (digitonin, anti-FLAG M2 agarose, FLAG peptide elution)"}}, "target": "the molecule itself", "experiment": "cryo-EM structure; purified SUR1/Kir6.2 KATP channel in digitonin, 1 mM ATP (no Mg2+) and 1 µM glibenclamide; C4 symmetry imposed; 3.63 Å", "data": [{"protein": "B1", "values": [{"measurement": "stoichiometry N", "value": 4}]}]}
